Data from publication PMC5175494.
pKd: −log10 of the molar value.

Experiments:
[1] = target: human cardiac T53C-IAANS TnC (human) (UniProt P63316); assay: stopped-flow fluorescence; apparent; 1 uM TnC T53C-IAANS with saturating Ca2+ and increasing concentrations of TnI128-180, Ca2+ removed with 10 mM EGTA; rate of Ca2+ dissociation followed by IAANS fluorescence; 15°C; 10 mM MOPS, 150 mM KCl, pH 7.0
Troponin C = Troponin C (UniProt P63316); details: cited from earlier work

pKd [1] | Substance | pKd (Troponin C)
5.52 | TnI_(128−180) peptide (from UniProt P19429 128-180) | 
 | Troponin I (from UniProt P19429) | 5.92
